Laboratory results published in patent publication US20260185118A1 (priority 2023, published 2026).
Positions count from the first letter of the chain named.

B1: CsPUB21DN (protein)
chain: MILSWKRLRGGRGRRAGKKQPGVESGGEMELTTPNHFRAPISLDLMKDPVTLSTGITYDRENIEKWIHEDGNITCPVTNRVLTSFEPIPNHTIRRMIQDWCVENRSYGIERIPTPRIPVSSVEVFEINCNITTACKSEDQAGCRDLVAKIKKWTKESDRNKRCIVDNGAVSVLAEAFETFSKTCLDENVSVLEEILSTLTLLFPLAGEGLTYLGSASSMRCMVWFLKSGDLSRRRNAVLVLREIVSSDHRKVNVLLDIEGAIEPLFKLIKEPICPTATKASLVVVYRTITSASATEKPIQKFVDMGLVSLLLEMLVDAQRSLCEKALSVLDGLCSSDYGRGDAYNNSLIFPVIVKKILRVSDLATEFAVSILWKLCKNEEREEKTAFAEALQVGAFQKLLLLLQVGCADKTKEHVSELLKLLNPHRARLECIDSMDFKDLKRPF
modifications: left off: large carriers
B2: CsPUB21: citrus plant U-box E3 ubiquitin ligase protein, amino acid sequence SEQ ID No. 1; overexpressed in citrus (protein)
chain: B1 chain with A39C

Columns and labels:
CsMYC2 [1] = assay type: cell-based, Citrus sinensis; conditions: tobacco leaves, 2-3 days, cytoplasm and nucleus
CsMYC2 [2] = assay type: binding, Citrus sinensis; conditions: yeast AH109, SD-Leu-Trp-His with 5 mM 3-AT
CsMYC2 [3] = assay type: biochemical, Citrus sinensis; conditions: with AtUBA1, AtUBC8 and ubiquitin, anti-MBP immunoblot
[4] = system: Diaphorina citri Kuwayama; assay type: in vivo; conditions: overexpressing leaves versus blank vector control leaves, 100 psyllids starved 2 h, counted after 40 min
CsPUB21 = assay type: biochemical, Citrus sinensis; conditions: in the presence of E1 (AtUBA1) and E2 (AtUBC8), anti-c-myc immunoblot
CsMYC2 protein = assay type: cell-based, Citrus sinensis; conditions: tobacco leaves, 35S:CsMYC2-myc co-injected, versus 35S:YFP

Row | Molecule | interaction with CsMYC2 (BiFC) (CsMYC2 [1]) | interaction with CsMYC2 (yeast two-hybrid) (CsMYC2 [2]) | polyubiquitination of the CsMYC2 protein in vitro (CsMYC2 [3]) | Diaphorina citri Kuwayama attracted by leaves of transgenic citrus [4] | E3 ubiquitin ligase activity (auto-ubiquitination) (CsPUB21) | accumulated level of the CsMYC2 protein on coexpression (CsMYC2 protein)
1 | B1 | does not affect the interaction with CsMYC2 | does not affect the interaction with CsMYC2 | cannot ubiquitinate CsMYC2 | about 40% | does not show ubiquitination activity | this reduction was inhibited
2 | B2 |  |  |  | 63.5% |  | 
